Source: US12404345B2, “Humanized antibodies against iRHOM2” (SCIRHOM GMBH, priority 2021, dated 2025)

T1: mouse iRhom2 (Mus musculus, UniProt Q80WQ6)
T1 construct: MEF-DKO-miR2-FL-WT-T7 cells stably expressing mouse iRhom2 full length wild type; expressed in transfected cells; host or cells: immortalized iRhom1/2-/- DKO mouse embryonic fibroblasts, pMSCV retroviral infection
T1 sequence (Q80WQ6 1-827): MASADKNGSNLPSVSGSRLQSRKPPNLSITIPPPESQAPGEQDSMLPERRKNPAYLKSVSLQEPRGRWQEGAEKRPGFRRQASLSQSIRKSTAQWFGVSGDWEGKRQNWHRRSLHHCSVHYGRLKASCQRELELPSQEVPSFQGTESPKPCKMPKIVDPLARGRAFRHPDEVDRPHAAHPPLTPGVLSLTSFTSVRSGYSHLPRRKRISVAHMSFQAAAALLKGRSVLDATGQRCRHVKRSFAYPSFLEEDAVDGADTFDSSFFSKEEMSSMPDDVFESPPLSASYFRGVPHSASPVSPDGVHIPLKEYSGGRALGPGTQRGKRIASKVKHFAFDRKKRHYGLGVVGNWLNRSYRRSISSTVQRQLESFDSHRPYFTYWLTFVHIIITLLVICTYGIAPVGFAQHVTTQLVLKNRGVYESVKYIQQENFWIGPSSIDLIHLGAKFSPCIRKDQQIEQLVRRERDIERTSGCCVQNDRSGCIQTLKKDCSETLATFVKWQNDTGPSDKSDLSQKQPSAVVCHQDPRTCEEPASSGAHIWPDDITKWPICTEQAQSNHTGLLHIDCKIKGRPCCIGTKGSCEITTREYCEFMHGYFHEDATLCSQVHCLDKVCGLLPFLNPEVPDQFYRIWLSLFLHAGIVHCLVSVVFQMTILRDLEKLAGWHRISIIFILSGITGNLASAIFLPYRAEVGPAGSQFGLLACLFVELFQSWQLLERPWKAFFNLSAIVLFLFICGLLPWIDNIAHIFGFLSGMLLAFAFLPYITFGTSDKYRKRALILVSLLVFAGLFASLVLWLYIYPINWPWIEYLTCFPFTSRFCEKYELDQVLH

B1: 16-B-03: humanized antibody binding human iRhom2; HCVD SEQ ID NO 1, LCVD SEQ ID NO 5 (antibody, V domains shown)
VH: QVTLRESGPALVKPTQTLTLTCTFSGFSLSTFALGVGWIRQPPGKALEWLAHIWWDDDKYYNPALKSRLTISKDTSKNQVVLTITNMDPVDTATYYCARITTYYYGMDYWGQGTLVTVSS
VL: EIVMTQSPDFQSVTPKEKVTITCRASQSIGNHLHWYQQKPDASPKLLIKYASQSISGVPSRFSGSGSGTDFTLTINSLEAEDAATYFCQQSYQWPLTFGQGTKLEIK
modifications: antibody sequences
B2: 16-B-05: humanized antibody binding human iRhom2; HCVD SEQ ID NO 9, LCVD SEQ ID NO 13 (antibody, V domains shown)
VH: QVTLRESGPALVKPTQTLTLTCTFSGFSLSTFALGVGWIRQPPGKALEWLAHIWWDEDKYYNPALKSRLTISKDTSKNQVVLTITNMDPVDTATYYCARITTYYYGMDYWGQGTLVTVSS
VL: EIVMTQSPDFQSVTPKEKVTITCRASQSIGNHLHWYQQKPDASPKLLIKYASQSISGVPSRFSGSGSGTDFTLTINSLEAEDAATYFCQQSYNWPLTFGQGTKLEIK
modifications: antibody sequences
B3: 16-B-07: humanized antibody binding human iRhom2; HCVD SEQ ID NO 17, LCVD SEQ ID NO 21 (antibody, V domains shown)
VH: QVTLRESGPALVKPTQTLTLTCTFSGFSLSTFALGVGWIRQPPGKALEWLAHIWWDEDKYYNPALKSRLTISKDTSKNQVVLTITNMDPVDTATYYCARITTYYYGMDYWGQGTLVTVSS
VL: EIVMTQSPDFQSVTPKEKVTITCRASQSIGNHLHWYQQKPDASPKLLIKYASQSISGVPSRFSGSGSGTDFTLTINSLEAEDAATYFCQQSYQWPLTFGQGTKLEIK
modifications: antibody sequences
B4: 23-B-04: humanized antibody binding human iRhom2; HCVD SEQ ID NO 25, LCVD SEQ ID NO 29 (antibody, V domains shown)
VH: QVTLRESGPALVKPTQTLTLTCTFSGFSLSTFGMGVGWIRQPPGKALEWLAHIWWDDEKYYNSALKSRLTISKDTSKNQVVLTITNMDPVDTATYYCARISNYGSNYWYFNVWGQGTLVTVSS
VL: AIQLTQSPSSLSASVGDRVTITCRASSSVSYMYWYQQKPGKAPKVLIYDTSNLASGVPSRFSGSGSGTDYTLTISSLQPEDFATYYCQQWNAYPLTFGQGTKLEIK
modifications: antibody sequences
B5: 42-B-04: humanized antibody binding human iRhom2; HCVD SEQ ID NO 41, LCVD SEQ ID NO 45 (antibody, V domains shown)
VH: QVTLRESGPALVKPTQTLTLTCTFSGFSLSTFGRGVGWIRQPPGKALEWLAHIWWDDEKYYNSALKSRLTISKDTSKNQVVLTITNMDPVDTATYYCARIQNYGSNYWYFDVWGQGTLVTVSS
VL: AIQLTQSPSSLSASVGDRVTITCRASSRISYMFWYQQKPGKAPKVLIYDTSNLASGVPSRFSGSGSGTDYTLTISSLQPEDFATYYCQQWNAYPLTFGQGTKLEIK
modifications: antibody sequences
B6: 42-B-02: humanized antibody binding human iRhom2; HCVD SEQ ID NO 33, LCVD SEQ ID NO 37 (antibody, V domains shown)
VH: QVTLRESGPALVKPTQTLTLTCTFSGFSLSTFGRGVGWIRQPPGKALEWLAHIWWDDEKYYNSALKSRLTISKDTSKNQVVLTITNMDPVDTATYYCARIQNYGSNYWYFDVWGQGTLVTVSS
VL: AIQLTQSPSSLSASVGDRVTITCRASSRISYMFWYQQKPGKAPKVLIYDTSNLASGVPSRFSGSGSGTDYTLTISSLQPEDFATYYCQQWNSYPLTFGQGTKLEIK
modifications: antibody sequences

target: T1, mouse iRhom2; experiment: FACS mouse cross-reactivity on MEF-DKO-miR2-FL-WT-T7 cells; format: binding; conditions: antibody at 3 μg/ml
From the text: Next, immortalized iRhom1/2−/− DKO MEFs were reconstituted with a tagged form of human iRhom2 to test target recognition of humanized antibodies of the invention. Additionally, iRhom1/2−/− DKO MEFs stably expressing a tagged form of mouse iRhom2 were generated in order to determine cross-reactivity of the humanized antibodies 16-B-03, 16-B-05, 16-B-07, 23-B-04, 42-B-02 and 42-B-04 of the invention with the mouse orthologue of iRhom2.
In brief, on day 1, Phoenix-ECO cells (American Type Culture Collection, USA) were seeded on 6-well tissue culture plates (Greiner, Germany) in standard growth medium at 8×10^5 cells per well and kept overnight at 37° C., 5% CO2. On day 2, the medium was replaced by fresh medium supplemented with chloroquine (Sigma-Aldrich, USA) at a final concentration of 25 μM. Applying the calcium phosphate method, cells were transfected with 2 μg/ml of pMSCV (Clontech, USA) empty vector, pMSCV-hiR2-FL-WT-T7 encoding human iRhom2 full length wild type C-terminally tagged with 3 consecutive copies of the T7 epitope (MASMTGGQQMG) or pMSCV-miR2-FL-WT-T7 encoding mouse iRhom2 full length wild type C-terminally tagged with 3 consecutive copies of the T7 epitope, and were kept at 37° C., 5% CO2. After 7 hours, the transfections were stopped by replacing cell supernatants with standard growth medium lacking chloroquine, and cells were incubated at 37° C., 5% CO2 to allow virus production overnight. In parallel, immortalized iRhom1/2−/− DKO MEFs as target cells for retroviral infection were seeded on 6-well tissue culture plates (Greiner, Germany) in standard growth medium at 1×10^5 cells per well and were also kept overnight at 37° C., 5% CO2. On day 3, the supernatants of Phoenix-ECO cells releasing pMSCV, pMSCV-hiR2-FL-WT-T7 or pMSCV-miR2-FL-WT-T7 ecotrophic virus were collected, filtered with 0.45 μm CA filters, and supplemented with 4 μg/ml of polybrene (Sigma-Aldrich, USA). Upon removal of medium from the immortalized iRhom1/2−/− DKO MEFs, the virus containing supernatants were added to the target cells for 4 hours at 37° C., 5% CO2 for first infection. Simultaneously, Phoenix-ECO cells were re-incubated with fresh medium, which, after another 4 hours, was filtered and used for the second infection of the respective target cell populations, again in the presence of 4 μg/ml of polybrene. Likewise, a third, but overnight infection cycle was performed. On day 4, virus containing cell supernatants were replaced by fresh standard growth medium. From day 5 onwards, cells were grown in the presence of 2 mg/ml of geneticin (G418, Thermo Fisher Scientific, USA) for the selection of immortalized MEF-DKO-EV control cells stably infected with pMSCV empty vector, MEF-DKO-hiR2-FL-WT-T7 cells stably expressing human iRhom2 full length wild type C-terminally tagged with 3 consecutive copies of the T7 epitope, and MEF-DKO-miR2-FL-WT-T7 cells stably expressing mouse iRhom2 full length wild type C-terminally tagged with 3 consecutive copies of the T7 epitope. Upon propagation, cells were stocked for future usage.
In brief, immortalized MEF-DKO-EV control cells, MEF-DKO-hiR2-FL-WT-T7 cells and MEF-DKO-miR2-FL-WT-T7 cells were harvested with 10 mM EDTA in PBS, washed and resuspended in FACS buffer (PBS, 3% FBS, 0.05% sodium azide), and seeded in Nunc U-bottom 96-well plates (Thermo Fisher Scientific, USA) at approximately 3×10^5 cells per well. To pellet cells and remove supernatants, the plates were centrifuged at 1,500 rpm and 4° C. for 3 minutes. For primary staining, cells were resuspended in 100 μl per well of either FACS buffer alone (controls), mouse monoclonal anti-T7 IgG (Merck Millipore, USA) at 3 μg/ml FACS buffer or the humanized antibodies 16-B-03, 16-B-05, 16-B-07, 23-B-04, 42-B-02 and 42-B-04 of the invention also at 3 μg/ml FACS buffer and incubated on ice for 1 hour. Afterwards, plates were centrifuged at 1,500 rpm and 4° C. for 3 minutes and washed twice with 200 μl per well of FACS buffer. […]

For B1, which “binding to mouse iRhom2 on MEF-DKO-miR2-FL-WT-T7 cells (mouse cross-reactivity)” value (from here on “binding to mouse iRhom2”) is on record?
Its value is “no significant binding”.

How did the “binding to mouse iRhom2” value turn out when B2 was run?
Its value is “none of these humanized antibodies of the invention are cross-reactive”.

Which “binding to mouse iRhom2” value does the source give for B3 here?
Its value is “none of these humanized antibodies of the invention are cross-reactive”.

Which “binding to mouse iRhom2” value does the source give for B4 here?
Its value is “none of these humanized antibodies of the invention are cross-reactive”.

How did the “binding to mouse iRhom2” value turn out when B5 was run?
The value was “none of these humanized antibodies of the invention are cross-reactive”.

For B6, which “binding to mouse iRhom2” value is on record?
The value was “none of these humanized antibodies of the invention are cross-reactive”.
